B1: Zinc finger MYM-type protein 3, residues 405 to 444; numbered along this chain, Q14202 (parent)
chain: DATRCSICQKTGEVLHEVSNGSVVHRLCSDSCFSKFRANK
B2: Kinesin-like protein KIF16B, residues 1213 to 1273; numbered along this chain, Q96L93 (parent)
chain: ETWTVFRRYSRFREMHKTLKLKYAELAALEFPPKKLFGNKDERVIAERRSHLEKYLRDFFS

Variants of: B1
Assay: abundance fitness (aPCA) (normalised: wild type 0, dead -1); higher = more abundant; growth selection in yeast, the domain comes from the species named
Conditions: Homo sapiens

Abundance fitness of substitutions, site by site:
V14: S -0.185; Y -0.461; K -0.43
F33: M 0.187
L27: M 0.033; G -0.331
S34: M -0.039; A 0.203
R4: Y 0.079; F 0.147; D 0; H -0.039
E13: H -0.204
I7: N 0.209; R -0.25
T11: S -0.315; W -0.627
C28: F -1.09
C32: Q -0.345
V24: F -0.307; H -0.034
H16: V -0.492; P -0.605
K40: T 0.138
Q9: W -0.234; H -0.194; S -0.129
E17: S -0.192; H -0.285; N -0.291
N39: V 0.058; A 0.015; W -0.192; H -0.212; D -0.228
A38: L -0.265
R37: W -0.288; A -0.003; C -0.093
C5: D -0.79
S22: T 0.018; L -0.208
V18: N -0.358; W -0.228
C8: Q -0.993
G12: M -0.089; R -0.165; H -0.215
A2: K 0.243; D 0.305; F 0.186
G21: M -0.243; P -0.392; K -0.214
T3: S -0.06; K 0.272
S31: F -0.166; K 0.081
D30: H -0.425
V23: N 0.14; D 0.079
R26: I -0.173; H -0.074; A -0.02; Y -0.339; N -0.195
D1: S -0.054
F36: M -0.296; W 0.147
H25: A -0.122
K10: R -0.098; E -0.088; V -0.649; G -0.09

Variants of: B2
Assay: as above
Conditions: Homo sapiens

Abundance fitness of substitutions, site by site:
R7: H 0.225; A 0.022; M -0.04; C 0.084; V -0.042; G 0.186; F 0.078; Q 0.164; K 0.227; L -0.025; T -0.02; P -0.161; N -0.131; S 0.141
R13: Q -0.398; E -0.354; K 0.1; S -0.137; Y -0.079; G 0.023; V -0.443; N -0.265; T -0.056; L -0.108; A 0.096; W -0.213; C -0.333; D 0.391; M -0.153
H16: A 0.135; Q -0.194; N -0.353; T 0.144; R -0.073; E -0.842; Y 0.167; S -0.083; M 0.311; I 0.452; W 0.534; F -0.044; C 0.016; D -0.835; V 0.342; K 0.062; L 0.379
R8: K 0.295; M 0.284; I 0.37; W 0.02; D -0.271; N -0.31; H -0.198; G 0.097; L 0.317; V 0.26; T 0.005; E -0.494; S 0.12; Y 0.048; C 0.282; P -0.092; Q 0.057; A 0.334
F6: M -0.443; C -0.842; Q -0.402; Y -0.69; K -0.442; L -0.242; A -0.241; V -0.107; T -0.352; R -0.601; P -0.227; S -0.215; E -0.161; N -0.451; H -0.541; G -0.168; I -0.044; D -0.474
E14: F -0.433; S -0.229; A -0.318; N -0.556; G -0.183; I -0.867; T -0.597; H 0.13; P -0.589; Q -0.534; D -0.159; C -0.319; V -0.299; M -0.41; L -0.429; W -0.69
T2: G -0.721; W -0.146; V -0.165; L 0.274; M -0.538; C -0.5; Y -0.352; E -0.18; I 0.085; K -0.409; S -0.523; P 0.047; Q -0.541; A -0.687; N -0.286
V5: P -0.442; G 0.22; M 0.125; D -0.156; Q -0.093; W 0.086; T 0.094; A 0.161; S -0.023; R -0.041; K 0.318; L 0.035; I -0.044; E -0.486
W3: C -0.761; R -0.232; S -0.152; I -0.655; D -0.022; Q -0.771; N -0.024; K -0.051; T -0.432; A -0.66; F 0.086; V -0.521; E -0.088; L -0.45; G 0.039; M -0.274; Y -0.424
E1: V -0.846; W -0.421; K -0.26; G -0.62; L -0.75; M -0.343; D -0.001; N -0.153
T18: G -0.237; A 0.176; D -0.806; C -0.143; E -0.223
Y9: M 0.163; E -0.858; Q -0.446; R -0.27; W 0.076; C 0.123; P 0.129; L 0.063; V 0.019; K -0.056; A -0.119; N 0.091; T -0.201; S 0.055; I 0.156; G 0.245
S10: Y -0.567; P 0.135; V -0.167; H -1.1; W -0.018; R -0.395; K -0.317; F 0.099; L -0.007; E -0.758; C 0.208; D -0.224; Q -0.419; T 0.136; A -0.095; I -0.229
F12: Y -0.469; K -1.08; W 0.017; G -0.597; I 0.068; V 0.047; T -0.907; E -0.941; M -0.103; S -0.642; C -0.164; R -0.921; A -0.271
M15: W 0.229; T -0.455; Q -1.09; G -0.736; P -0.993; V 0.215; E -1.09; L 0.265; A -0.044; R -1.09; F -0.095; S -0.908
K17: E -0.311; V -0.225; A -0.325; Q -0.452; T -0.489; F -0.685; Y -0.607; M -0.343; W -0.783; C -0.483; R -0.199; L -1
R11: E -0.487; D -0.231; S 0.09; V 0.246; M 0.423; A 0.206; G -0.03; Y -0.154; C 0.166; T -0.096; L -0.059; H -0.112; P -0.133; W 0.205; N -0.122
T4: S 0.109; R -0.256; N 0.308; V -0.319; Q 0.119; W 0.033; D 0.178; L -0.318; H -0.406; G 0.085; P -0.102; Y -0.139; F -0.124; K -0.15; A -0.087; I -0.23; E 0.223; M -0.077; C 0.079

From the Human Domainome abundance scans (Beltran et al. 2025)
